In article PMC2901902:

Tests used:
[1] = biological target: DPF3b PHD12 with Ala mutation of Glu315 or Asp335; assay: ITC
[2] = biological target: histone H3 acetylated at lysine 14 in C2C12 chromatin (mouse (endogenous in C2C12)) (UniProt P68433); assay: re-ChIP

Row | Substance | fold reduction in affinity (against wild type PHD12) [1] [fold] | fold reduction of co-occupancy (against wild type DPF3b) [2] [fold]
1 | histone H3 peptide acetylated at lysine 14 (residues 1–18) (from UniProt P68431 2-19) | 80 to 250 | –
2 | EGFP-DPF3b D263A or F264A mutant | – | 2 to 3
